Consider five compounds from PMC8307404, “Crystal Structure-Guided Design of Bisubstrate Inhibitors and Photoluminescent Probes for Protein Kinases of the PIM Family” (Molecules, 2021).

Common to all, as to test: Kinase profiling (radiometric filter-binding)
Common to all, as to format: biochemical

One data set deals with T1, MAP4K3 (Homo sapiens, UniProt Q8IVH8).
T1 sequence (Q8IVH8 1-894): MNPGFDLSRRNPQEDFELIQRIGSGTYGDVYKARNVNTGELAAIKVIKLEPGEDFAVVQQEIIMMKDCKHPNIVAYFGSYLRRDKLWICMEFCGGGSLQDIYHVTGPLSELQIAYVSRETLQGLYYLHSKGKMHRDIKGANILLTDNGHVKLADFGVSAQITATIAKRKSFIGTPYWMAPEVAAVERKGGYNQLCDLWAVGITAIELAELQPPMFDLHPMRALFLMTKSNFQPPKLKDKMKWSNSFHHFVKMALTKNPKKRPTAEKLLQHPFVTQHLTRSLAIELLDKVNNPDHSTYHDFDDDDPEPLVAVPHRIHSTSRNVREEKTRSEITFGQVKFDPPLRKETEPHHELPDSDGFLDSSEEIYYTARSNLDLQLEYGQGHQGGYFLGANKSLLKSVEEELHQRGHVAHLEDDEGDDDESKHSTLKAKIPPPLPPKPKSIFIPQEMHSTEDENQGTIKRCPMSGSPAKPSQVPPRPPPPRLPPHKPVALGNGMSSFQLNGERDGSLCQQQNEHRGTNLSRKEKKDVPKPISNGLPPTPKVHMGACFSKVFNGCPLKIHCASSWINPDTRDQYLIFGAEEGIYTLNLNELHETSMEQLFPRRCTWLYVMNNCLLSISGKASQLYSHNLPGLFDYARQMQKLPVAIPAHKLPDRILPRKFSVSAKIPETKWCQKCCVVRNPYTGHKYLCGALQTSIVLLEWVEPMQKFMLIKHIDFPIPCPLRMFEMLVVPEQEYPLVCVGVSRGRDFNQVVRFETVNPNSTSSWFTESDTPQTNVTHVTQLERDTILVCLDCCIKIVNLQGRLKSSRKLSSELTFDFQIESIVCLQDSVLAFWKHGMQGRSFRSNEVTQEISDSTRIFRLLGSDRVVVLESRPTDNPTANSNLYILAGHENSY
The settings on record: MAP4K3, 1 µM inhibitor; read-out: Residual activity, %. In short, it runs like this: (§1)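 A 1 µM final dose of each inhibitor was profiled on human protein kinases; ATP was kept at or beneath the KM of every enzyme, and radiometric filter binding measured turnover, expressed as % of the inhibitor-free reaction.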

The target of the next data set is T2, LKB1 (Homo sapiens, UniProt Q15831).
T2 sequence (Q15831 1-433): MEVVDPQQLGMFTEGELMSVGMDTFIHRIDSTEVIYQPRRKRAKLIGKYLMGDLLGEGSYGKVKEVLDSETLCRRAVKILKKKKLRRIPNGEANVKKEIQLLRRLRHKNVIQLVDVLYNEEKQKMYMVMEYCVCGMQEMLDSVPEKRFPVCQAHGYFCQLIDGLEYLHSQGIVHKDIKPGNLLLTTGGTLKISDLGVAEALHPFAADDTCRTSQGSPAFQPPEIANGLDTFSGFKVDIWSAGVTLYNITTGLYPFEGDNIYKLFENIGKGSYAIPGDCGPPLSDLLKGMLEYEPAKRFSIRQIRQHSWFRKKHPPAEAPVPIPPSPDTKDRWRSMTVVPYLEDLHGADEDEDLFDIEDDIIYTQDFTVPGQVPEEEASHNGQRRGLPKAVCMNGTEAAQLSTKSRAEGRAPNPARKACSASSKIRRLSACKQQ
T2 sequence (Q7RTN6 1-431 partner): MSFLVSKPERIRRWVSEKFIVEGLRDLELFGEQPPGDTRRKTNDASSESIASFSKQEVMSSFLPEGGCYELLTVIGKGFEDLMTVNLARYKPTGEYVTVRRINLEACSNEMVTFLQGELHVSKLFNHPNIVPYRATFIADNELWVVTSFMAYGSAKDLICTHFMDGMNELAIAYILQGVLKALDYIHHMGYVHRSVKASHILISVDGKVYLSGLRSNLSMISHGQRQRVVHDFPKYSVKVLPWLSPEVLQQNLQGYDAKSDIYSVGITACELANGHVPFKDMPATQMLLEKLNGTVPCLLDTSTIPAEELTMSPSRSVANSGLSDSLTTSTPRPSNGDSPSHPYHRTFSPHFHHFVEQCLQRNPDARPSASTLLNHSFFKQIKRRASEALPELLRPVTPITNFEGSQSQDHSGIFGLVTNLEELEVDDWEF
T2 sequence (Q9Y376 1-341 partner): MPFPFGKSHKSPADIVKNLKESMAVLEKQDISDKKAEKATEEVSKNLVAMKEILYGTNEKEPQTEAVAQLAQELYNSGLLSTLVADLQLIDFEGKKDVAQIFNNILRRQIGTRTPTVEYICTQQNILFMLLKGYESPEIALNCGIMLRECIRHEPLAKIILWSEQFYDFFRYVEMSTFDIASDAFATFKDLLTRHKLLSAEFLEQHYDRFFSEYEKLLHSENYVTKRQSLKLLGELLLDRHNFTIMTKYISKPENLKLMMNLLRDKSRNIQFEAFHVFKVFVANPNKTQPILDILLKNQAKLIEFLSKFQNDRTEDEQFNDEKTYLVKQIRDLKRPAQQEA
The settings on record: LKB1, 1 µM inhibitor; read-out: Residual activity, %. In short, it runs like this:
as §1

Another data set addresses IRR (Homo sapiens, UniProt P14616). The settings on record: 1 µM inhibitor, read-out: Residual activity, %. In short, it runs like this: as §1
A further data set deals with PKA (Homo sapiens, UniProt P17612). The settings on record: 1 µM inhibitor, read-out: Residual activity, %. In short, it runs like this:
as §1

The structures appear in SMILES notation. Square brackets hold non-standard residues; d marks the D form. Peptide text beside a SMILES is read from it. * marks the point of attachment. X3 = O=C(CCCCCNCc1nc2c(sc3cc(Br)cnc32)c(=O)[nH]1)*

IRR, sequence (P14616 27-1297): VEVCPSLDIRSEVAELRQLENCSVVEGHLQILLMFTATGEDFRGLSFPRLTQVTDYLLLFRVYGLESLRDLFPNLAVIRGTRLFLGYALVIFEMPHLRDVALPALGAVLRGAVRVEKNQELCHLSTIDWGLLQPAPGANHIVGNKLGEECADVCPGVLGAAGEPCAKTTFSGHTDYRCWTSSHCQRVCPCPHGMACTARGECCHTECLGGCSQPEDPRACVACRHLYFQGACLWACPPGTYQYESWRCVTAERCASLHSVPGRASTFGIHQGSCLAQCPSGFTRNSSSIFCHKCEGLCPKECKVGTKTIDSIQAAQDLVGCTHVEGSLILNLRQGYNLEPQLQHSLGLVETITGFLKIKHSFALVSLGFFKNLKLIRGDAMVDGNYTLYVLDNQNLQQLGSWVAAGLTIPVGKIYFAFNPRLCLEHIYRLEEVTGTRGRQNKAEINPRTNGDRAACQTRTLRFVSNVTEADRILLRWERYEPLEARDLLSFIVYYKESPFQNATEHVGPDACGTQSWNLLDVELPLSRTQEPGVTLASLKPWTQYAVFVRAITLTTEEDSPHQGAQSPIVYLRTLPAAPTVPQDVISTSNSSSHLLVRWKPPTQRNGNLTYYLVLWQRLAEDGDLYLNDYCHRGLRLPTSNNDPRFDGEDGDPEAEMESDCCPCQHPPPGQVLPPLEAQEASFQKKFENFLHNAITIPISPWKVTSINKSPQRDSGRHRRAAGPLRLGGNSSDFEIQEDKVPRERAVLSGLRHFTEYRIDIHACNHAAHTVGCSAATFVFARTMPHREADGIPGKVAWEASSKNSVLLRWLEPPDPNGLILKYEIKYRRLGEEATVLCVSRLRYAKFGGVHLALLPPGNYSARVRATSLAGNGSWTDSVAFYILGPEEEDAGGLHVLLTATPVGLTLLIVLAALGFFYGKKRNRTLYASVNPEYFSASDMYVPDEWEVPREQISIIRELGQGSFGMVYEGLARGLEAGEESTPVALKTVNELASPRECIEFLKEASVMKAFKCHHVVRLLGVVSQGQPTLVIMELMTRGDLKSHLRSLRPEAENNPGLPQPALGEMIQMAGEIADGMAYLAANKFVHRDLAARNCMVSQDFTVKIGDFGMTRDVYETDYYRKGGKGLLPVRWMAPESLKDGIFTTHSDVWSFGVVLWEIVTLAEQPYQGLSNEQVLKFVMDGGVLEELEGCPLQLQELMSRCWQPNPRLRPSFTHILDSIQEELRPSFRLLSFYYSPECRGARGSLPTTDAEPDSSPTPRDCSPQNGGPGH

For `N=C(N)NCCC[C@@H](NC(=O)CCCCCNC(=O)Cn1cnc2c(I)c(I)c(I)c(I)c21)C(=O)N[C@H](CCCNC(=N)N)C(=O)N[C@H](CCCNC(=N)N)C(=O)N[C@H](CCCNC(=N)N)C(=O)N[C@H](CCCNC(=N)N)C(=O)N[C@H](CCCNC(=N)N)C(=O)N[C@H](CCCCN)C(N)=O` [ARC-3125, TIBI-CH2-C(=O)-Ahx-(D-Arg)6-D-Lys-NH2], the remaining activity at 1 µM turned out to be 17 ± 1% in the data set with MAP4K3, 49 ± 28% in the data set with LKB1, 20 ± 34% in the data set with IRR and 7 ± 3% in the data set with PKA.

Turning to `N=C(N)NCCC[C@@H](NC(=O)CCCCCNCc1nc2c(sc3cc(Br)cnc32)c(=O)[nH]1)C(=O)N[C@H](CCCNC(=N)N)C(=O)N[C@H](CCCNC(=N)N)C(=O)N[C@H](CCCNC(=N)N)C(=O)N[C@H](CCCNC(=N)N)C(=O)N[C@H](CCCNC(=N)N)C(=O)N[C@H](CCCCN)C(N)=O` [ARC-3126, BPTP-Ahx-(D-Arg)6-D-Lys-NH2] (X3-[dR][dR][dR][dR][dR][dR][dK]-NH2), the remaining activity at 1 µM was 81 ± 7% in the data set with MAP4K3, 114 ± 11% with LKB1, 75 ± 4% with IRR and 97% with PKA.

As to `N=C(N)NCCC[C@@H](NC(=O)CNC(=O)[C@@H](CCCNC(=N)N)NC(=O)[C@@H](CCCNC(=N)N)NC(=O)CCCCCCCNCc1nc2c(sc3cc(Br)cnc32)c(=O)[nH]1)C(=O)N[C@H](CCCCN)C(N)=O` [Compound 1, BPTP-Aoc-(D-Arg)2-Gly-D-Arg-D-Lys-NH2], the remaining activity at 1 µM is 119 ± 1% with MAP4K3, 107 ± 1% in the data set with LKB1, 99 ± 2% in the data set with IRR and 100 ± 9% in the data set with PKA.

Consider `N=C(N)NCCC[C@@H](NC(=O)CNC(=O)[C@@H](CCCNC(=N)N)NC(=O)[C@@H](CCCNC(=N)N)NC(=O)CCCCCCCNCc1nc2c(sc3ccc(Br)cc32)c(=O)[nH]1)C(=O)N[C@H](CCCCN)C(N)=O` [Compound 2, BBTP-Aoc-(D-Arg)2-Gly-D-Arg-D-Lys-NH2], for which the remaining activity at 1 µM is 118 ± 3% with MAP4K3, 118 ± 4% in the data set with LKB1, 99 ± 5% with IRR and 85 ± 6% in the data set with PKA.

In the case of `N=C(N)NCCC[C@@H](NC(=O)CNC(=O)[C@@H](CCCNC(=N)N)NC(=O)[C@@H](CCCNC(=N)N)NC(=O)Cn1cc(CNCc2nc3c(sc4ccc(Br)cc43)c(=O)[nH]2)nn1)C(=O)N[C@H](CCCCN)C(N)=O` [Compound 3, BBTP-Amt-(D-Arg)2-Gly-D-Arg-D-Lys-NH2], the remaining activity at 1 µM amounted to 105 ± 2% with MAP4K3, 115 ± 13% with LKB1, 110 ± 1% in the data set with IRR and 82 ± 10% in the data set with PKA.
